Experimental data from the DeepSol protein solubility set.

Experiment: soluble on expression in E. coli; label from the status in PepcDB or PDB records

Row | Sequence | soluble on expression in E. coli
1 | MTQFAFVFPGQGSQSVGMLAEMAANYPIVEETFAEASAALGYDLWALTQQGPAEELNKTWQTQPALLTASVALWRVWQQQGGKMPALMAGHSLGEYSALVCAGVINFADAVRLVEMRGKFMQEAVPEGTGGMSAIIGLDDASIAKACEESAEGQVVSPVNFNSPGQVVIAGHKEAVERAGAACKAAGAKRALPLPVSVPSHCALMKPAADKLAVELAKITFSAPTVPVVNNVDVKCETDAAAIRDALVRQLYNPVQWTKSVEFIAAQGVEHLYEVGPGKVLTGLTKRIVDTLTASALNEPAALSAALTQ | not soluble
2 | STSTNNELTVSMMGTSTKEEVVSKVDEEDDDSSSDSDMDYGSDSEWAGYNVLAETEPEWDVDSFDGHEFKINPRVRQMYRSQELYDKYYNNRLKAFENKGFLSDHLNGIYDVYLDEKMDGYNSTRDFMAELANVCVKKHNETKGNTLELVNVVRATERGAATWRLYITFMAREFPDGPLVEYQAKVIKFLGVKDPFPVLCRAAPKPGI | soluble
3 | GPGSMSHKRPQSSAGESNGAVDLKTPRFDPVSLGLPAEFQLTDYTRLKGCSCKLPQPKLLALLQELSATPGQKDVGMDCSIVPLHHTNSKGEALFLVSTTDFFFPSVSDPFLQGQIGAANVLSDLYSMGIPDCDTMLMLLAASTEMDEHERLITTREIMKGFAERARLATTTVTGGQTVMNPWPLIGGVAMAVVSEAEMVRPTGLLCAGDILVLTKPLGCQVAVNLKQWLLRPSPLYEEAIAGHISPEEIEELYNMATDSMRRLNREGARLMRKHGAHGATDVTGFGILGHANNFGAAQAVGDAPRSLCLVLERLPMFKTAVAASKQMNDKYRLLEGYSAETSGGLLVAFPSTTAAAAFCAELTAVDGGCPSWIVGHVEDRATNAVDGVYARLKDGYEIVEV | soluble
4 | GPLGSPLIGEIGPETYSDYMSAGIPLAYIFAETAEERKELSDKLKPIAEAQRGVINFGTIDAKAFGAHAGNLNLKTDKFPAFAIQEVAKNQKFPFDQEKEITFEAIKAFVDDFVAGKIEPSIKSEPIPEKQEG | soluble
5 | MNRISFNSFSNMHSLLSSKFQEHYNDIYDWNGNIENIYKANTFISIGYKLLYPLGVLEANFDKEKLKKFLFRICSYYNDIPYHTSLHAAQVAHFSKSMLFMLDMNHKISAIDEFCLHISSLCHDTGHPGLNNYFLINSENNLALTYNDNSVLENYHCSLLFKTLKNPNYNIFEHYPYHIFISCKKNIIKAILSTDMKNHFEYISDFRTSKEFIDYDNLSNDQIWQIFCLILKASDIGHSTLEWNKHLEWTLKINEEFYLQGLLEKSLNIQNSFLCDINTMNKLALSQIDFLKHLCIPLFNELNYICKNNDVYTHCIQPIENNIERWESHKND | soluble
6 | MGSDKIHHHHHHMAKKLFDYQLDETVDGYFLLKDSEVRIAKNGKKFLAINFQDTSGEISGKFWDASDTDVENFQAGRIVHLKGKRENYQGNPQIKIQQMRLTHSGEPQEVQQFVEHAPLKTDTMADEINQFVFEITEPNWNRIVRHMLTTFHDRFFSYPAAKKNHHAFAGGLAYHTLSILRLAKAVADQYPHVNRALLYAGAILHDMGKTIEMSGPVSTTYTLAGNLVGHIVLIDEQIVETCQQLKIDEQSESVLVLRHTILAHHGLLEYGSPVRPHIMEAEILHDLDELDASIQMMQTSLGHAEPGTYTERIFAMDGRNFYRPTGDQTKGELPDEQN | not soluble
7 | MGSDKIHHHHHHMKETSWDDYKIAYQVALDGSLSRAGVSLRINHATVLRRINQLEQALEVKLFIRHQRGYKLTDAGCVLMDEMPEMLAKFSSLENKLQNVEGDISGELRITTVSSFSPVITPALKAFRAKYPKIRLKLISTDDIVPLDSGAAHVSLRAGPSPVGVDLVVKNLIKLETAYHATQDYIDEFGQPKTINEFNDHQWVLPTPEKYRIPFVNYIVDKIDKNRIVFQSNNFSDIHDAVIAGMGIGPLSDHQASLNPSMVKIDLDIPKNGESIWFVYHKDLKHSARIQSFYHFLKAALSDIEQEHLRISDSKTNKD | not soluble
8 | HVGYPLLLKWLPLKPKANDEGEHFAERHYKASASDNKLPSVTIIIPAYNEEQWIAEKIRNLASLDYPRDKLKVVIACDGCTDKTAEIAQDTIQEAICSDTLFIVNDHSINRGKVALINEEMKHVTSDITALSDTSALVSCDSLLLASQHYQNEKVGVVNATYQIMRTSNQGEAAYWQYQSRVKHQESLLGSTIGSHGAFYTFRTKLFEPLEAGTINDDFILPMRIVLRGFTSVYEPKMLALELEQSSDDADFKRRLRISAGNMQQLMQLKKLLLPRYRGTAFAFLSGKVLR | not soluble
9 | RGSHMEVRNMVDYELLKKVVEAPGVSGYEFLGIRDVVIEEIKDYVDEVKVDKLGNVIAHKKGEGPKVMIAAHMDQIGLMVTHIEKNGFLRVAPIGGVDPKTLIAQRFKVWIDKGKFIYGVGASVPPHIQKPEDRKKAPDWDQIFIDIGAESKEEAEDMGVKIGTVITWDGRLERLGKHRFVSIAFDDRIAVYTILEVAKQLKDAKADVYFVATVQEEVGLRGARTSAFGIEPDYGFAIDVTIAADIPGTPEHKQVTHLGKGTAIKIMDRSVICHPTIVRWLEELAKKHEIPYQLEILLGGGTDAGAIHLTKAGVPTGALSVPARYIHSNTEVVDERDVDATVELMTKALENIHELKI | soluble
10 | MSLDLISFSVPGNLLLMGEYTILEEKGLGLAIAINKRAFFSFKKSDSWRFFSKKKKIDDFSLIENRSDFVFKMFAYLSQNCFFNLENFAYDVYIDTSNFFFNDGTKKGFGSSAVVAIGIVCGLFLIHNATNVVEKGEIFKYCLEAYRYSQGGIGSGYDIATSIFGGVIEFEGGFNPKCRQLGAVEFNDFYLMQGLQAIKTTTSICEYNKHRNSILDFILKCNLEMKKLVLNASNSKSALISSLRRAKELGLAIGEAIGVSAALPSSFDHLLGQCDLIKALGAGNETFLVYRPNIEAFNLSKIISIVLENEGIKFESDKEGHHHHHH | not soluble
11 | MGDNENGDNLNNHQDSGSGSHHDAAPQQQQNNMSHQQQPQQQQHNEHNKQQQQQRDDVCRDFLKNICNRGSRCKFYHPSEAPPISDHDYNFCIDYQNRGCQRDNCRFVHAPRDEVERYKTTRELTLILARAIAAVGHGDTIGGIPICKEFQTGRCARGVNRCRYWHVNVDLERDRRNRGLPPSNDFGPGGGGGGMGGGGGSGGSGGGSGRFPPPPPPYGGGGRRRPYDDYDSDPIKRGRYGSDDRLMELEKRNAELSKEVDSLRRELQREHDRYEDLYALFRQQSGGAPAPPKAAAAASAVNDYYGTWGQKAPGW | soluble
12 | MLEESKNALRVFITGNPGVGKTTILLFLINKLSENNYKVAGFYCPEVRENGRRIGFRIVDITTNEGDWLAKENAPGRVKIGKYTVLEDSAKRITEITLSNINKADVLAIDEIGPMELKIPTIKKLIETILNNQKPLIAVLHRTQKPMGGRIYVITVENRDSIKYEILNYILSSLD | soluble
13 | MGSDKIHHHHHHMAEHIITLVLSGERLDVTTSTPFVVALRDLLYEGDWELLKEDMKKKENIMKEVQTCEKLEKVVHLDETVYEPLIFPEFQEWLREENITPKDFKNVSLKGLYDLALEYADRNLYDIAHDIIKFMLDIDENYAPAYELKGSLLVEQGKIEEGIKFLDKAVEIDPWLVQAYASLGEAYYNLGDYEKAIHYWERELEYNPNDKITYFMITEAYYEMNRKDLAVKTLERLLEIDPDNIPALYQLSQLYRELGNEEKAREMEEKIMNCKPKYPTELEPWARVMLKHGRYKEVAEELEKIVESSPLNTLARLLLVVPYVKLGQIDKAREILDDIGQSNFWYYYGKKEILDELLTEEEKRACGIS | not soluble
14 | MTTTQDWIMIGGYGPESYNQQSSYQRALLEAAKDKMTEAISANLDLDLISNRFIVADFGCASGPNTFVAVQNIIDAVEEKYLRETGQNPEDNIEFQVLFNDLRINDFNTLFQTLPPGRRYFSAGVPGSFFNRVLPKQSFHIAVMSYAFLFTSKIPKGIMDRDSPLWNKDMQCTGFNPAVKKAYLEQYSIDTKNLLDARAEELMPGGLMLLLGSCMRDGVKMSETLKGTVMDFIGESLNDLAQKGVTEQEKVDTFKTSIYFAEQGEIRQIIEENGKFTIEAFEDIIHSKNEFPLDPKTLAISFKALYGAFISAHFGIEVMRKAFELVEVKAREQISRLHKVKPGMQYLIVLRKN | soluble
